The test has as its target T1, H-2 D^b MHC class I molecule (mouse, UniProt P01887 21-119; P01899 25-362, limits assumed).
T1 construct: whole, on cells
T1 sequence (MHC heavy, looked up): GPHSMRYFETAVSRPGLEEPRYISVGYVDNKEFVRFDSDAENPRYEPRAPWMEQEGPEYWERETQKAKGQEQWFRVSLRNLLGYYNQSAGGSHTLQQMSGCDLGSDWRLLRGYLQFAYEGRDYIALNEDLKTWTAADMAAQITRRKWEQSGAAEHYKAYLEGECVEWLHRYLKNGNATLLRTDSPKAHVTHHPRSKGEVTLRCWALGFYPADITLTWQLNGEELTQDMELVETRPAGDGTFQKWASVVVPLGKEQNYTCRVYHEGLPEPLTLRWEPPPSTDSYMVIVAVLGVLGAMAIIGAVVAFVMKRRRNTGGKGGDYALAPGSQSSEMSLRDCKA
T1 sequence (b2m, looked up): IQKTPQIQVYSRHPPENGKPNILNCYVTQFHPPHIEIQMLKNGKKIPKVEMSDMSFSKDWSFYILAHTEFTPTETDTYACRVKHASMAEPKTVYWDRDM
Kind of test: synthetic peptide pulsed on L cells expressing H-2 D^b, read by T cell hybridoma activation.

B1: SPAS-1 peptide STHVNHLHC (peptide)
peptide: STHVNHLHC
notes: Encoded by nucleotides 730 to 756 of the SPAS-1 (T) cDNA from TRAMP-C2 tumor cells
As for B1, the binding result was “binds”.

The record behind these values is patent US20070202121A1 (University of California, published 2007).
